From PMC6065357, “Structural insights into SorCS2–Nerve Growth Factor complex formation” (Nature Communications, 2018)

B1: mouse SorCS2 mature extracellular segment (sSorCS2, residues 117-1072) (receptor)
chain: not shown
notes: SorCS2, mouse, residues 117-1072: the mature extracellular segment, without signal peptide and pro-peptide; Expressed from pUPE107.03 with a cystatin secretion signal peptide; For the unliganded crystal the protein was deglycosylated with EndoHf and treated with trypsin (limited proteolysis); also called SorCS2 ectodomain; wt sSorCS2; source: HEK293-ES (GnTI-) or HEK293-E, secreted, purified …

Key:
[1] = target: the molecule itself; test: crystal structure; sSorCS2 mixed with proNGF 1:1.1, 1 mM calcium chloride; proNGF degraded to NGF in the drop; 0.225 M MES/bis-tris pH 6.6; 3.9 Å
[2] = target: B1; test: SPR; IBIS MX96; NGF, proNGF and proBDNF amine-coupled to a P-COOH SensEye sensor; wt and mutant sSorCS2 flowed as analyte; 25 mM HEPES pH 7.4, 150 mM NaCl, 0.005 % Tween 20; 25 °C; equilibrium binding, one site saturation model (two site saturation model for proBDNF); settings: both partners purified

| Binder | stoichiometry N [1] | Kd [2] |
| --- | --- | --- |
| B1 | 2 |  |
| pro-brain-derived neurotrophic factor (proBDNF, residues 19-249, furin sites changed to AA) (ligand) APMKEVNVHGQGNLAYPGVRTHGTLESVNGPRAGSRGLTTTSLADTFEHVIEELLDEDQKVRPNEENHKDADLYTSRVMLSSQVPLEPPLLFLLEEYKNYLDAANMSMRVAAHSDPARRGELSVCDSISEWVTAADKKTAVDMSGGTVTVLEKVPVSKGQLKQYFYETKCNPMGYTKEGCRGIDKRHWNSQCRTTQSYVRALTMDSKKRIGWRFIRIDTSCVCTLTIKRGR |  | 69 nM |
